Results reported in patent US20260209365A1, “ANTI-COMMON GAMMA CHAIN PROTEINS AND COMPOSITIONS OF MATTER” (SINOMAB BIOSCIENCE LIMITED, priority 2023, published 2026).
Residue numbers refer to the chain shown, from its start.

T1: human γc on cells (KHYG-1, Ramos, HPB-ALL, Jurkat, PBMC) (human) (UniProt P31785)
T1 sequence (looked up): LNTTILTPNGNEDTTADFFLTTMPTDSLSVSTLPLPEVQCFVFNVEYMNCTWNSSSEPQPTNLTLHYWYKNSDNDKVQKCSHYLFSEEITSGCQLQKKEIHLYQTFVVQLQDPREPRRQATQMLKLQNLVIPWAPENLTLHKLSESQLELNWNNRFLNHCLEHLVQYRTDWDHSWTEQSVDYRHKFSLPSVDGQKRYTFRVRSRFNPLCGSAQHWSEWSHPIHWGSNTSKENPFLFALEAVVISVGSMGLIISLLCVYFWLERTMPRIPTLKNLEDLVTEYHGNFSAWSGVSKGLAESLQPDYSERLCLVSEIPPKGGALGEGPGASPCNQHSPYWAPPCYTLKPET

B1: SM-05G anti-γc ScFv (scFv, part only; not given: linker and E-tag, not shown: small tags and cut ends)
scFv (part 1 of 2), part: EVQLQQSGPELVKPGASVKIFCKTSGYTFTEYTMHWVKQSHGESLEWIGGIDPNTGGVTYNQKFKGKATLTADSSSSTAYMELRNLTSEDSAVYYCARRRRYYGYALDYWGQGTSVTVSS
scFv (part 2 of 2), part: DVVMTQTPLSLPVNLGDQASISCRSSQSLVHSNGNTYLDWYLQKPGQSPKLLIYKVSNRFSGVPDRFSGSGSGTYFTLNFSRVEAEDLGVYYCFQGSHVPFTFGSGTKLEIKR
B2: SM-05K: anti-γc antibody; CDR SEQ ID NO: 164, 166, 168, 172, 174, 176 (antibody, V domains shown)
VH: EVQLLESGPELVKPGASVKISCKTSGYSFTDYFMNWVKQSHGESLEWIGGIDPNTGGVTYNQKFKGKATLTVDKSASTAYMELRSLTSEDSAVYYCARRRRYYGYAMDYWGQGTSVTVSS
VL: DVLMTQTPLSLPVSLGDQASISCRSSQSIVHSNGNTYLEWYLQKPGQSPKLLIYKVSNRFSGVPDRFSGSGSGTDFTLKISRVEAEDLGVYFCSQSTHVPWTFGGGTKLEIK
modifications: left off: another chain or arm of the molecule; small tags and cut ends
B3: SM-05A anti-γc ScFv (scFv, part only; not given: linker and E-tag, not shown: small tags and cut ends)
scFv (part 1 of 2), part: EVQLQQSGPELVKPGASVKISCKTSGYTFTEYTMHWVKQSHGKSLEWIGGIDPYNGGATYNQRFKGKATLTVDKSSSTAYMEFRSLTSEDSAVYYCARRRLYYGNALDYWGQGTSVTVSS
scFv (part 2 of 2), part: DVLMTQTPLSLPVSLGDQASISCRSSQSLVHSNGNTYLHWYLQRPGQSPKLLIYKVSSRFSGVPDRFSGSGSGTDFTLKISRVEAEDLGVYFCSQTTHVPFTFGSGTKLEIKR
B4: SM-05J anti-γc ScFv (scFv, part only; not given: linker and E-tag, not shown: small tags and cut ends)
scFv (part 1 of 2), part: B3 scFv (part 1 of 2), part with A58I, F83L, N105Y
scFv (part 2 of 2), part: B1 scFv (part 2 of 2), part with N14S, L29I, D39E, Y75D, N79K, F80I
B5: SM-05E anti-γc ScFv (scFv, part only; not given: linker and E-tag, not shown: small tags and cut ends)
scFv (part 1 of 2), part: B1 scFv (part 1 of 2), part with Q3H, S74K, N85S
scFv (part 2 of 2), part: B3 scFv (part 2 of 2), part with L29I, H39E, R44K, S58N, R82S, T96S, T102M
B6: SM-05H anti-γc ScFv (scFv, part only; not given: linker and E-tag, not shown: small tags and cut ends)
scFv (part 1 of 2), part: B1 scFv (part 1 of 2), part with E1Q, V18M, K19N, V58A, K67Q, S74K, N85S
scFv (part 2 of 2), part: B3 scFv (part 2 of 2), part with S28N, L29I, V30I, H39E, R44K, S58N, S68T, T96S, S105G
B7: SM-05B anti-γc ScFv (scFv, part only; not given: linker and E-tag, not shown: small tags and cut ends)
scFv (part 1 of 2), part: B1 scFv (part 1 of 2), part with E1Q, V58A, S74K, N85S
scFv (part 2 of 2), part: B3 scFv (part 2 of 2), part with L29I, H39E, R44K, S58N, T96S, F101W, S105G
B8: SM-05C anti-γc ScFv (scFv, part only; not given: linker and E-tag, not shown: small tags and cut ends)
scFv (part 1 of 2), part: B1 scFv (part 1 of 2), part with E1Q, V58A, S74K, N85S, L107M
scFv (part 2 of 2), part: B1 scFv (part 2 of 2), part with N14S, D39H, Y75D, N79K, F80I, V90I, G96D
B9: SM-05I anti-γc ScFv (scFv, part only; not given: linker and E-tag, not shown: small tags and cut ends)
scFv (part 1 of 2), part: QVQLQQSGAELAKPGASVKLSCKASGYTFTEYTMHWVKQSHGESLDWIGGIDPNTGGATYNQRFKGKATMTVDKSSSTAYMEFRSLTSEDSAVYYCARRRRYYGYALDNWGQGTSVTVSS
scFv (part 2 of 2), part: B3 scFv (part 2 of 2), part with L29I, H39E, R44K, S58N, F92Y, S94F, T96D, T97S
B10: SM-05F anti-γc ScFv (scFv, part only; not given: linker and E-tag, not shown: small tags and cut ends)
scFv (part 1 of 2), part: B1 scFv (part 1 of 2), part with S74K, N85S
scFv (part 2 of 2), part: B1 scFv (part 2 of 2), part with V3L, N14S, L29I, S32N, D39E, S61F, N79K, F80I, F101W, S105G
B11: SM-05K anti-γc ScFv (scFv, part only; not given: linker and E-tag, not shown: small tags and cut ends)
scFv (part 1 of 2), part: B2 VH
scFv (part 2 of 2), part: B3 scFv (part 2 of 2), part with L29I, H39E, R44K, S58N, T96S, F101W, S105G

Legend:
[1] = biological target: T1, human γc on cells (KHYG-1, Ramos, HPB-ALL, Jurkat, PBMC) (human); test: cell-based or functional assay
[2] = tested on: IL-15 induced STAT5 phosphorylation; test: Inhibition of IL-15 induced STAT phosphorylation in KHYG-1 NK cell line, flow cytometry; assay type: cell-based, human; conditions: ScFv 10 μg/ml
From the text: (§1) Cells were harvested and stained with FITC conjugated anti-pSTAT6, PE conjugated anti-pSTAT3 or APC con jugated anti-pSTAT5 antibodies for flow cytometry analyses. In some embodiments, the purified ScFv could block the IL-4 induced STAT6 phosphorylation in cell culture (e.g., Ramos). In some embodiments, the purified ScFv could block the IL-7 induced STAT5 phosphorylation in cell culture (e.g., HPB-ALL). In some embodiments, the purified ScFv could block the IL-9 induced STAT3 phosphorylation in cell culture (e.g., Jurkat). In some embodiments, the purified ScFv could block the IL-15 induced STAT5 phosphorylation in cell culture (e.g., KHYG-1). In some embodiments, the purified ScFv could block the IL-21 induced STAT3 phosphorylation in cell culture (e.g., Ramos).
(§2) Flow cytometry was employed to measure the percentage of p-STAT expressing cells after cytokine induction and anti-γc ScFv treatment. KHYG-1 (Creative Bioarray, Shirley, NY 11967, USA) was starved in IL-2 free RPMI1640 (ATCC modification, ThermoFisher Scientific, Waltham, MA, USA) with 10% FBS (ThermoFisher Scientific) for 2 days. Ramos, HPB-ALL and Jurkat cell lines were used directly without starvation. Cells were replenished with fresh RPMI1640 medium and pretreated with anti-γc ScFv (10 μg/mL) for an hour. After treatment with TL-4 (10 ng/ml, Sino Biological), IL-7 (50 ng/ml, Sino Biological), IL-9 (50 ng/ml, Sino Biological), IL-15 (10 ng/ml, Sino Biological) or IL-21 (10 ng/ml, Sino Biological) for 15 min, cells were fixed in 4% paraformaldehyde (PFA, Sigma, St. Louis, Missouri, USA) for 10 min, permeabilized in 0.1% Triton X-100 (Sigma) for 10 min and then stained with FITC conjugated anti-pSTAT6, PE conjugated anti-pSTAT3 or APC con jugated anti-pSTAT5 (all diluted in 1:100, Biolegend, San Diego, California, USA) for 30 min at 37° C. Percentage of p-STAT expressing cells was measured by BD FACSLyric™ Clinical Flow Cytometry System (BD Biosciences, New Jersey, USA). Data were analyzed by Flowjo (version 10, BD).
(§3) Different cell lines were used for testing. KHYG-1 refers to the NK cell line harvested from the peripheral blood of a person with aggressive NK cell leukemia. This cell line could respond to IL-2 and IL-15 stimulation in-vitro [Yamasaki et al., Leuk Res., […]; 28 (10): 1023-31]. Ramos is a human Burkitts Lymphoma cell line (CRL-1596™) and could be used as a model for IL-4 and IL-21 studies [Hui et al., Front Immunol., 2022; 13: 919854]. Jurkat is a human T lymphoblast cell line (Clone E6-1, TIB-152™) and is widely used in the T cell studies of IL-9 function. HPB-ALL is a T cell leukemia model established from the peripheral blood of a child with ALL and thymoma at diagnosis in 1973 and could be used for IL-7 functional studies.

[3] = tested on: IL-21 induced STAT3 phosphorylation; test: Inhibition of IL-21 induced STAT phosphorylation in Ramos B cell line, flow cytometry; assay type: cell-based, human; conditions: ScFv 10 μg/ml
From the text: as §1, §2, §3

[4] = tested on: IL-7 induced STAT5 phosphorylation; test: Inhibition of IL-7 induced STAT5 phosphorylation in HPB-ALL T cell line, flow cytometry; assay type: cell-based, human; conditions: ScFv 10 μg/ml
From the text: as §1, §2, §3

| Molecule | p-STAT5 inhibition (%), IL-7 induced, HPB-ALL T cells, flow cytometry [1] [%] | p-STAT5 inhibition (%) [2] [%] | p-STAT3 inhibition (%) [3] [%] | p-STAT5 inhibition (%) [4] [%] | p-STAT3 inhibition (%), IL-9 induced, Jurkat T cells, flow cytometry [1] [%] | p-STAT3 inhibition (%), IL-21 induced, Ramos B cells, flow cytometry [1] [%] | p-STAT5 inhibition (%), IL-15 induced, KHYG-1 NK cells, flow cytometry [1] [%] | p-STAT6 inhibition (%), IL-4 induced, Ramos B cells, flow cytometry [1] [%] |
| --- | --- | --- | --- | --- | --- | --- | --- | --- |
| B1 | 0 | – | – | – | – | – | – | – |
| B2 | – | 42.97 | 90.77 | 86.02 | – | – | – | – |
| B3 | 100 | – | – | – | 80.6 | 47.3 | 48.6 | 86.1 |
| B4 | 98.1 | – | – | – | 100 | 75.8 | 42.7 | 82.2 |
| B5 | 98.3 | – | – | – | 74.3 | 60.6 | 47.8 | 85.6 |
| B6 | 100 | – | – | – | 93.1 | 70.6 | 51.7 | 63.4 |
| B7 | 94.5 | – | – | – | 82.6 | 13.8 | 47.1 | 77 |
| B8 | 100 | – | – | – | 97.9 | 29.1 | 46 | 46 |
| B9 | – | – | – | – | 100 | 91 | 38.9 | 74.1 |
| B10 | 99.4 | – | – | – | 92.4 | 79 | 43.7 | 46 |
| B11 | 86 | – | – | – | – | 90.8 | 43 | – |
